This note sets out measurements from the nanobody polyreactivity screen of Harvey et al. (2022).

The nature of the series: yeast display, Sf9 membrane polyspecificity reagent, FACS + sequencing; frameworks hold sequencing errors. A digest of the protocol: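 Sorting gates, low and high (top ~1%), were placed on anti-HA fluorescence to track expression and on streptavidin fluorescence to track reagent binding. A clone's polyreactivity label is taken from the gate it came out of. The reagent was 10% biotinylated, detergent-solubilized Sf9 membrane, applied for 1 hour at 4 °C to galactose-induced yeast display cells.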
As for “QVQLEESGGGLEQAGGSLRLSCAATGSIFNFYAMAWYIRAPGKERELVAAITRSGGSTYYADSVKGRFTISRDNAKNTVYLQMNSLIPEDTAVYYCSAASRKRTSREPLDYWGQGTQVTVSS”, the “polyreactivity (PSR sort gate)” value is on record as “high polyreactivity”. For “QVQLEESGGGLFQAGGSLRLSCAASGTTQNGYTMGWYRQAPGKEREMVATINRGSSTHYADSVKGRFTISRDNAKNTVYLQMNSLKPEDTAVYYCNKRYPLGTEYYYLGQGTQVTVSS”, the “polyreactivity (PSR sort gate)” value was “high polyreactivity”. Regarding “QVQLEESGGGLGQAGGSLRLSCAASGSTFTVNGKGWYRQPPGKERELVASITWSGGSTYYADSVKGRFTLSRDNAKYTVYLQMNSLKPEDTAVYYCAADEKLYITGYDYWGQGTQVTVSS”, the “polyreactivity (PSR sort gate)” value is recorded as “low polyreactivity”. For “QVQLEESGGGLLKEGGSLRLSCAASGFTFDGYAMGWYRQAPGKERELVAVITSGGSTKYADSVKGRFTISRDNAKNTVYLQMNSLKPEVTAVYNCNVVGGRYLYSAYDYWGHGTQVTVSS” the value was “low polyreactivity”. In the case of “QVQLEESGGGLVKAGGSIRLSCAASGLIFYSYAMVWYRHAPGKERELVAVITRSGGNTNYADSVKGRFTISRDNAKNTVYLQMNSRKPEDTAVYYCATRGIWKKVPYYYWGQGTQVTVSS”, the “polyreactivity (PSR sort gate)” value is reported as “high polyreactivity”. As for “QVQLEESGGGLVKAGGSLSLSCAASGRTFYSYAMGWYRQAPGKERELVAAISAGGSTYYADSVQGRFTSSRDNAMNTLNLQMTSLKPEDTAVYYCAATYSYYYARYHYWGQGTQVTVSS”, the entry is “high polyreactivity”; as for “QVQLEESGGGLVQAGASHRLSCAASGITFYWYAMGSYRQAPGKERELVAGISQSGSLTYYADSVKRRFTISRDNAKNTVYLQMKSLKPEDSAVYYCAARVRWSPSRTFEYWGQGSQVTVSS”, “high polyreactivity”. Consider “QVQLEESGGGLVQAGASLRLSCAASGRTIAHYAMGWYRQAPGKERELVAAITRGGGTYYADSVKGRFTISRDNAKHSVYLQMNSLKPEDTAVYYCAADHSRYGYPAKTMDYWGQCTQVTVSS”, for which the “polyreactivity (PSR sort gate)” value is “low polyreactivity”. As to “QVQLEESGGGLVQAGASLRLSCDASGSIFKKYAMGWYRPAPGKEWELVPAITRGTYYADSVKGRFTISRDNAKNTVYLQMNSLKPEDTAVYYCNREFWGRGYYRVRGEYDYWGQGTQVTVSS”, the “polyreactivity (PSR sort gate)” value is reported as “low polyreactivity”.

As for “QVQLEESGGGLVQAGGRLRLSCAASGIIFEYYAMGGYRQAPGTERELVAAIFSGGSTYYADSVKGRFTISGDNAKNNVYLQMNSLKPEDTAVYYCAADYFAWGQGTQVTVSS”, the “polyreactivity (PSR sort gate)” value was “high polyreactivity”.

Turning to “QVQLEESGGGLVQAGGRLRLSSAASGRTFMPNGMGWYRQAPGKERELVAAISWRGGSTYYADSVKGRFTISRDNAKNTVYLQMNSLKPEDTAVYYCNARVSRQYDYWGQGTEVTVSS”, the “polyreactivity (PSR sort gate)” value is reported as “low polyreactivity”. In the case of “QVQLEESGGGLVQAGGSHRLICAASGSTFEYYAMGWYRQAPGKERELVAAINGIGGSTTYADSVKGRFTISRDTAKYTVYLQMNSLKPEDTAVYYCNADVARSKSQASAYDYWGQGTQVNVSS”, the “polyreactivity (PSR sort gate)” value is given as “low polyreactivity”. As for “QVQLEESGGGLVQAGGSHRLSCAASGSTIYAYTMGWYRQAPGKERELVARISGRGGSTYYADSVKGRFTISRDNAKNTVYLQMNSLKQEDTAVYYCAARRKFDYWGQGTQVTVSS”, the entry is “high polyreactivity”. As for “QVQLEESGGGLVQAGGSLPLSCASSGRIFCVYAMGWYRQAPGKESELVATITSGGSTSYADSVKGRFTISRDNANYTVYLLMNSLKPEDTAVYYCNGPYSFFWQQMNYWGHGTQVTVSS”, the entry is “low polyreactivity”; as for “QVQLEESGGGLVQAGGSLRISCSASGFNFRYYTMGWYRQAPGKERELVAAITSRGGSTYYADSLKGRFTISRDIAKNTVYLQMNSLKPEDTAVYYCATTSWGYEYWGQGTEVTVSS”, “high polyreactivity”. Turning to “QVQLEESGGGLVQAGGSLRLICAASGIIFYVNAMGWYRQAPGKERELVAAITFGGDSTYYADSVKGRFTISRDNAKNTVYLQMNSLKPEDTAVYYCATDGDPAYPEMEYWGQGTQVTVSS”, the “polyreactivity (PSR sort gate)” value is recorded as “low polyreactivity”. For the sequence “QVQLEESGGGLVQAGGSLRLICAASGRTCGSNTMGWYRQAPGKERELVAASTISCGSTYYADSVKGRFTFSRDNAKNTVYLQMNSLKPDVTALDYCATRLWGQGGGRTTSYMYYWGQGTQVTVSS”, the “polyreactivity (PSR sort gate)” value is given as “high polyreactivity”. As for “QVQLEESGGGLVQAGGSLRLSCAACGSIFDNYAMGWYRQAPGKERELVAVISKRGGRTYYADSVKGRFTISRDNAKNTVYLQMNSLKPEDTAVYYCANGGQGSTPTSAWAKYDYWVQGTQVTVSS”, the entry is “high polyreactivity”. For “QVQLEESGGGLVQAGGSLRLSCAASGFIFAFNAMGWYRQAPGKEREMVATISWNDGGTYYADSVKGRFTISRDNAKNTVYLEMNSLKPEDTAVYYCAADWYLYLDDKYDYWGQGTQVTVSS” the value was “low polyreactivity”. For “QVQLEESGGGLVQAGGSLRLSCAASGFIFDSYAMGWYRQAPGKERELVAAISWSGGRTYYADSVKGRFTISRDNAKNTVYLQMNSLKPEDTAVYYCNVLVHSLSGRKYDYWGQGTQVTVSS” the value was “high polyreactivity”. With “QVQLEESGGGLVQAGGSLRLSCAASGFTFYYYTMGWYRQAPGKERELVAAITWRGGSTNYADSVKGRFTISRDNAKNTVYLQMNSLKPEEPAVYYCAAVTYWFWPGMDYWGQGTQVTVSS”, the “polyreactivity (PSR sort gate)” value is reported as “low polyreactivity”. On to “QVQLEESGGGLVQAGGSLRLSCAASGFTLEYYAMGWYRKAPGKERELVAVITESDGNTYYADSVKGRFTISRDNAKNTVYLQMNSLKPEDTAVYYCAAEYRDGYRFSYDYWGQGTQVTVSS”, for which the “polyreactivity (PSR sort gate)” value is recorded as “low polyreactivity”. For “QVQLEESGGGLVQAGGSLRLSCAASGGIFIFYAMGWYRQAPGKERELVAAISNVSSTNYADSVKGRFTISRDNAKNSVYLQMNSLKPEDTAVYYCNAVGVPSEYYSWGHGTQVTVSS”, the “polyreactivity (PSR sort gate)” value is recorded as “low polyreactivity”. As for “QVQLEESGGGLVQAGGSLRLSCAASGGIFWYNAMGWYRQAPGKERELVADISSSGITYYADSVKGRFTISRDNAKNTVYLQMNSLKPEDTAVYYCAADSTTRPGLRVYDDYDYWGQGTQVTVSS”, the entry is “low polyreactivity”; as for “QVQLEESGGGLVQAGGSLRLSCAASGGTFLAYALGWYRQAPGKERELVATITSGGSTNYADSVKGRFTISRDNAKNTVYLQMNSLKPEDTAVYYCAASGRDFIAESPYDYWGQGTQVTVSS”, “low polyreactivity”; as for “QVQLEESGGGLVQAGGSLRLSCAASGIIIRYYAMGWYRQAPRKERELVDSITARSGSTYYADSVKGRFSISRDYAKNTVYFQMNSLKPEDTAVYYCAKSGKPARYYYWGQGTQVTVSS”, “high polyreactivity”. As for “QVQLEESGGGLVQAGGSLRLSCAASGITFSLYVMGWFRPAPGKESELVATISFNVASTYADSVKGRFTISRVNAKNTVYLQMYSLTPEDTAVYYCNADTYWYRDSRYDYCGQGTQVTVSS”, the “polyreactivity (PSR sort gate)” value is reported as “low polyreactivity”. As for “QVQLEESGGGLVQAGGSLRLSCAASGITIWGYTMGWYRQAPGKERELVAAITSTGSTYYADSVKGRFTISRDNAKNTVYLQMNSLKPEDTSVYYCAATRGSSEYYYWGQGTQVTVSS”, the entry is “low polyreactivity”; as for “QVQLEESGGGLVQAGGSLRLSCAASGLIFGWYAMGWYRQAPGKERELVAAISRRGGSTYYADSVKGRFTISRDNAKNSVFLQMNSLKPEDTAVYYCNADTYGDSYDYWGQGTQVTVSS”, “high polyreactivity”; as for “QVQLEESGGGLVQAGGSLRLSCAASGLTFPSNDMGCYRQAPGKERELVAASSKRGGRTYYADYVKGRFTISRDNAKNTVYLQMNSLKPEDTAVYYCATPYAFPGTVQYAGYNYWGQGTQVTVSS”, “high polyreactivity”. For “QVQLEESGGGLVQAGGSLRLSCAASGLTFSRYAMGSYRQATGKERELVAAISIRGGNTYYADSVKGRFTISRDNAKNTVYLQMNSLKPEDTAVYYCNAVVYHYTLDHEYDYWGQGTQVTVSS” the value was “high polyreactivity”. “QVQLEESGGGLVQAGGSLRLSCAASGLTFVQYTMGWYRQAPGKERELVAVITSASSTNYADSVKGRFTISRDNAKNTVYLQMNSLKPEDPAVYYCNATTYPYYTNSYQYEYWGQGTQVTVSS”: the “polyreactivity (PSR sort gate)” value is listed as “low polyreactivity”. For “QVQLEESGGGLVQAGGSLRLSCAASGLTFVYNTMGMYRQAPGKERELVAAINWSGGRTYYADSVKGRFTISRDNAKNTVYLQMNSLKPEDTAVYYCAALYVPNTPTYKYDYWGQGTQVTVSS” the value was “low polyreactivity”; for “QVQLEESGGGLVQAGGSLRLSCAASGLTIFVNAMGWYRQAPGKERELVATISGGGSTYYADSVKARFTISRDNAKNTVYLQMNSLKPEDTAVYYCATVWPHRFRYEYWGQGTQVTVSS”, “low polyreactivity”. As for “QVQLEESGGGLVQAGGSLRLSCAASGNILFKYAMGWNRQAPGKERELVASITSRGGSTYYADSVKGRFTISRDNAKNTVYLQMNSLKPEDTAVYYCAVDADEVTFDYWGQGTQVTVSS”, the entry is “low polyreactivity”; as for “QVQLEESGGGLVQAGGSLRLSCAASGNTFPGYAMGWYRQAPGKERELVARISRSGGSTYYADSVKGRFTISRDNAKKTVYLQMNSLKPEDTAVYYCAAGAYRSGGYSFDYWGQGTQVTVSS”, “low polyreactivity”. For “QVQLEESGGGLVQAGGSLRLSCAASGNTFTEYAMGWYRPAPGKEWELVASITGSGGSTYADSVKGRFTISRDNAKNSVYLQMNSLIAEDTAVYYCAKDTRYEYVGSEYGYWGQGTQVTVSS” the value was “low polyreactivity”; for “QVQLEESGGGLVQAGGSLRLSCAASGRIFATNAMGWYRPAPATERELVAAISSSGGPTYYADSVKGRFTISRDNAKNTVYLQMNSLIREATAVYYCARVPITNDQYSHYYYWGQGTQVTVSS”, “high polyreactivity”. As for “QVQLEESGGGLVQAGGSLRLSCAASGRIFGINALGWYRQAPGQERALVAAISRSGSRTYYADSVKGRFTISRDNAMNTVYLQMNSLKPEDTALYYCNARHQRFYAQPGDYWGQGTQVTVSS”, the “polyreactivity (PSR sort gate)” value was “high polyreactivity”. As for “QVQLEESGGGLVQAGGSLRLSCAASGRIFGWYTMGWYRQAPGKERELVAAINFSGSRTYYADSVKGRFTISRDNAKNTVYLQMNSLKPEDTAVYYCNAVYHQFREEYWGQGTQVTVSS”, the entry is “high polyreactivity”; as for “QVQLEESGGGLVQAGGSLRLSCAASGRIFGYYDMGWYRQAPGKERELVARITRGGGTTYYADSVKGRFTISRDNAKNTVYLQMNSLKPEDTAVYYCAAVRSWWHTHYNYDYWGQGTQVTVSS”, “high polyreactivity”.
